From patent US8796201B2 (The Board of Trustees of the Leland Stanford Junior …, priority 2002, dated 2014)

Assay: Double-blind crossover gluten challenge: daily symptom questionnaire
Assay type: in vivo, human (Celiac Sprue patients)
Conditions: PEP Stage, 20 patients
Source text: Subjects and protocols: This study was approved by the Institutional Review Board of the Palo Alto Medical Foundation in Palo Alto, Calif., and all participants in the study were counseled regarding risks and signed an informed consent document. 22 patients were recruited who were in symptomatic remission on a gluten-free diet. Two patients dropped out of the study, one near the end of the first stage and the other prior to the second stage. The 20 patients who completed the study included 7 men and […] aged 21 to 78 (mean age 49). The time since diagnosis for the 20 patients ranged from 3 months to 18 years (mean 6 years). […] The serum anti-gliadin IgA antibodies and anti-tissue transglutaminase IgA and IgG antibodies were measured by an enzyme linked immunosorbent assay (ELISA) kit (INOVA Diagnostics, Inc., San Diego, Calif.). […] Total serum IgA levels were determined by an Integra instrument (Roche) (normal <81 mg/dl). […] The 25 g D-xylose 5-hour urine excretion test and the 72-hour quantitative fecal fat test were measured at baseline and on Day 15. […] For the 72 h quantitative fecal fat test, patients were instructed to consume a diet containing 80-100 g fat per day during the collection. The fecal fat excretion was determined by a gravimetric method. […]

B1: PEP: prolyl endopeptidase; Examples 1-2: from Flavobacterium meningosepticum (US Biological); Example 11: source not stated (protein, UniProt P27028 21-705, looked up)
Prolyl endopeptidase: QNSNVLKYPETKKVSHTDTYFGTQVSDPYRWLEDDRAEDTKAWVQQEVKFTQDYLAQIPFRDQLKKQLMDIWNYEKISAPFKKGKYTYFSKNDGLQAQSVLYRKDAAGKTEVFLDPNKFSEKGTTSLASVSFNKKGTLVAYSISEGGSDWNKIIILDAETKKQLDETLLDVKFSGISWLGDEGFFYSSYDKPKEGSVLSGMTDKHKVYFHKLGTKQSQDELIIGGDKFPRRYIGAYVTDDQRYLVVSAANATNGNELYIKDLKNKTDFIPIITGFDSNVNVADTDGDTLYLFTDKDAPNKRLVKTTIQNPKAETWKDVIAETSEPLEINTGGGYFFATYMKDAIDQVKQYDKNGKLVRAIKLPGSGNASGFGGEKTEKDLYYSFTNYITPPTIFKYNVTTGNSEVYQKPKVKFNPENYVSEQVFYTSSDGTKIPMMISYKKGLKKDGKNPTILYSYGGFNISLQPAFSVVNAIWMENGGIYAVPNIRGGGEYGKKWHDAGTKMQKKNVFNDFIAAGEYLQKNGYTSKEYMALSGRSNGGLLVGATMTMRPDLAKVAFPGVGVLDMLRYNKFTAGAGWAYDYGTAEDSKEMFEYLKSYSPVHNVKAGTCYPSTMVITSDHDDRVVPAHSFKFGSELQAKQSCKNPILIRIETNAGHGAGRSTEQVVAENADLLSFALYEMGIKSLK
  average Total Stage Symptom Score (sum of the 14 daily symptom scores): 23 (range 4 to 82)
